Assay results: paper PMC4949324

What was measured:
C1 WT (ZF10-13) = molecular target: T1, C1 WT (ZF10-13) (mouse, UniProt A2A5K6 845-1337); test: quantitative EMSA
T1 sequence: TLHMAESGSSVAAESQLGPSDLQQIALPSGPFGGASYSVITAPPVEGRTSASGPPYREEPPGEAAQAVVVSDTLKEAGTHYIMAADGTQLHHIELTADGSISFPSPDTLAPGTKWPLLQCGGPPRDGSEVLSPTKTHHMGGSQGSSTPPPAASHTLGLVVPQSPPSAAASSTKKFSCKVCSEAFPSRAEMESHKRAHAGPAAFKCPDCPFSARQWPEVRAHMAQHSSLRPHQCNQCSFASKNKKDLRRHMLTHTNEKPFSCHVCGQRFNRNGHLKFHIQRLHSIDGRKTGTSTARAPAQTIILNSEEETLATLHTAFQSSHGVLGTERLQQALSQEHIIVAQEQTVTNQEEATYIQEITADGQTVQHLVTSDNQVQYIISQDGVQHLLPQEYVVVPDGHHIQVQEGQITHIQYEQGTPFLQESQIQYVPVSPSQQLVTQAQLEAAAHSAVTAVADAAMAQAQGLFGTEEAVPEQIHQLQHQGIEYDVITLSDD

C1 R1092W (ZF10-13) = molecular target: T2, C1 R1092W (ZF10-13) (mouse, UniProt A2A5K6 845-1337, R1092W); test: quantitative EMSA
T2 sequence: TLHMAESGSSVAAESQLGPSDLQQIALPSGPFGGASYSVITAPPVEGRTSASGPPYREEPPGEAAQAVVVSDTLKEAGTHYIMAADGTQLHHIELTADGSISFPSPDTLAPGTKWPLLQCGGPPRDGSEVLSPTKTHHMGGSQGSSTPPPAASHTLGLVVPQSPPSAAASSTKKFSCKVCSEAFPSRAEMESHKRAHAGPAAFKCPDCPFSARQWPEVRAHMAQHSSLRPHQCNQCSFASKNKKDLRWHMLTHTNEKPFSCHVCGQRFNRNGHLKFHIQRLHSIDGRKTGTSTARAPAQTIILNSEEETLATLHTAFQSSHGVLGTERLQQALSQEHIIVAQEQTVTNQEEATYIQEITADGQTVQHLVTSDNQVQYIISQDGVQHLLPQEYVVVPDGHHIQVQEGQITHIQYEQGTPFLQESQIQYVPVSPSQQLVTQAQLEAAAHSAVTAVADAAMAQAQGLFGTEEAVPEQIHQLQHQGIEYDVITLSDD

B1: A2 (dsDNA)
DNA 1: AGTCCGACTCAGGACCCCGACCAAGCTG
DNA 2: CAGCTTGGTCGGGGTCCTGAGTCGGACT
B1 was tested, and the Kd (C1 WT (ZF10-13)) was 0.0734 ± 0.0071 µM and the Kd (C1 R1092W (ZF10-13)) was 1.41 ± 0.117 µM.
